Article PMC3495951

Target: EGFP-H2B (UniProt P06899)
Assay: FRET or BRET; FLIM-FRET in living cells at 37°C; EGFP fusion as donor, mCherry fusion as acceptor; two-photon excitation at 890 nm; FRET efficiency = 1 - (tauDA/tauD), tauD from cells with mCherry-C1; control cells and TSA-treated cells

Q: For “mCherry-SRSF1 (from UniProt Q07955 1-248) (natural protein)”, which FRET efficiency (minor population) is on record?
A: Its FRET efficiency (minor population) is 6%.
